The record followed here is the RNAGym collection of RNA variant scans (doi:10.7554/elife.90254).

First the molecules themselves.
B1: LINE1-mini (parent)
chain: GGCAGAGCUCAACACAGCGUGGCAAAGUGGCUGUGGCUAGACUGCC

The series covers variants of B1. Description: self-cleavage, relative activity (ratio to wild type); higher = more cleavage; in vitro, sequencing; the parent is a self-cleaving ribozyme.
Regarding GGAAGAGCUCAACACAGCGUGACAAAGUGGCUGUGGCUAGACUGCC [C3A G22A], the self-cleavage was 0.52.

On to GGAAGAGCUCAACACAGCGUGGCAAAGUGGCUGUGGCUCGACUGCC [C3A A39C], for which the self-cleavage worked out at 0.11.

With GGAAGAGCUCAACACAGCGUGGCAAAGUGGCUGUGGCUGGACUGCC [C3A A39G], the self-cleavage came to 0.57. The figure for GGAAGAGCUCAACACAGCGUGGCAAAGUGGCUGUGGCUUGACUGCC [C3A A39U] is 0.48; for GGAAGAGCUCAACACAGCAUGGCAAAGUGGCUGUGGCUAGACUGCC [C3A G19A] it is 0.61. To GGAAGAGCUCAACACAGCCUGGCAAAGUGGCUGUGGCUAGACUGCC [C3A G19C] belongs 0.18; to GGAAGAGCUCAACACAGCUUGGCAAAGUGGCUGUGGCUAGACUGCC [C3A G19U], 0.24; to GGAAGAGCUCACCACAGCGUGGCAAAGUGGCUGUGGCUAGACUGCC [C3A A12C], 0.07. The figure for GGAAGAGCUCAUCACAGCGUGGCAAAGUGGCUGUGGCUAGACUGCC [C3A A12U] is 0.57; for GGAAGAGCUCAGCACAGCGUGGCAAAGUGGCUGUGGCUAGACUGCC [C3A A12G] it is 0.12; for GGAAGAGCUCAACACAUCGUGGCAAAGUGGCUGUGGCUAGACUGCC [C3A G17U] it is 0.2. Consider GGAAGAGCUCAACACAACGUGGCAAAGUGGCUGUGGCUAGACUGCC [C3A G17A], for which the self-cleavage was 0.16. Take GGAAGAGCUCAACACACCGUGGCAAAGUGGCUGUGGCUAGACUGCC [C3A G17C]: the self-cleavage was determined as 0.31. To GGAAGAGCUAAACACAGCGUGGCAAAGUGGCUGUGGCUAGACUGCC [C3A C10A] belongs 0.07. To GGAAGAGCUGAACACAGCGUGGCAAAGUGGCUGUGGCUAGACUGCC [C3A C10G] belongs 0.05; to GGAAGAGCUUAACACAGCGUGGCAAAGUGGCUGUGGCUAGACUGCC [C3A C10U], 0.19.

For GUCAGAGCCCAACACAGCGUGGCAAAGUGGCUGUGGCUAGACUGCC [G2U U9C], the self-cleavage came out at 0.01. The figure for GUCAGAGCACAACACAGCGUGGCAAAGUGGCUGUGGCUAGACUGCC [G2U U9A] is 0.06; for GUCAGAGCGCAACACAGCGUGGCAAAGUGGCUGUGGCUAGACUGCC [G2U U9G] it is 0.06; for GUCAGAGCUCAACACAGCGUGGCAAAGAGGCUGUGGCUAGACUGCC [G2U U28A] it is 0.07.

For the variant GUCAGAGCUCAACACAGCGUGGCAAAGCGGCUGUGGCUAGACUGCC [G2U U28C], the self-cleavage came to 0.06.

Regarding GUCAGAGCUCAACACAGCGUGGCAAAGGGGCUGUGGCUAGACUGCC [G2U U28G], the self-cleavage amounted to 0.04.

Regarding GGAAGAGCUCAACACAGCGUGGCAACGUGGCUGUGGCUAGACUGCC [C3A A26C], the self-cleavage was found to be 0.44. With GGAAGAGCUCAACACAGCGUGGCAAGGUGGCUGUGGCUAGACUGCC [C3A A26G], the self-cleavage was determined as 0.67. To GGAAGAGCUCAACACAGCGUGGCAAUGUGGCUGUGGCUAGACUGCC [C3A A26U] belongs 0.49; to GGAAGAGCUCAACACAGCGUGGCAAAGUGGCUGUGGCUAGACUGGC [C3A C45G], 0.42.

With GGAAGAGCUCAACACAGCGUGGCAAAGUGGCUGUGGCUAGACUGAC [C3A C45A], the self-cleavage was 0.48. To GGAAGAGCUCAACACAGCGUGGCAAAGUGGCUGUGGCUAGACUGUC [C3A C45U] belongs 0.53; to GUCAGAGCUCAACACAGCGUGGCAAAGUGGCUGUGGCCAGACUGCC [G2U U38C], 0.05; to GUCAGAGCUCAACACAGCGUGGCAAAGUGGCUGUGGCAAGACUGCC [G2U U38A], 0.05.

Turning to GUCAGAGCUCAACACAGCGUGGCAAAGUGGCUGUGGCGAGACUGCC [G2U U38G], the self-cleavage worked out at 0.02.

On to GGAAGAGCUCAACAAAGCGUGGCAAAGUGGCUGUGGCUAGACUGCC [C3A C15A], for which the self-cleavage is 0.24. Regarding GGAAGAGCUCAACAGAGCGUGGCAAAGUGGCUGUGGCUAGACUGCC [C3A C15G], the self-cleavage stood at 0.09. With GGAAGAGCUCAACAUAGCGUGGCAAAGUGGCUGUGGCUAGACUGCC [C3A C15U], the self-cleavage was 0.41.

Turning to GGAAGAGCUCAACACAGCGUGGCAAAGUGGCUGUGGCUAGACUGCC [C3A], the self-cleavage came out at 0.58. The figure for GGACGAGCUCAACACAGCGUGGCAAAGUGGCUGUGGCUAGACUGCC [C3A A4C] is 0.25. To GGAUGAGCUCAACACAGCGUGGCAAAGUGGCUGUGGCUAGACUGCC [C3A A4U] belongs 0.38; to GGAGGAGCUCAACACAGCGUGGCAAAGUGGCUGUGGCUAGACUGCC [C3A A4G], 0.17; to GUCAGAGCUCAACACAGCGAGGCAAAGUGGCUGUGGCUAGACUGCC [G2U U20A], 0.07. With GUCAGAGCUCAACACAGCGCGGCAAAGUGGCUGUGGCUAGACUGCC [G2U U20C], the self-cleavage came out at 0.05. The figure for GUCAGAGCUCAACACAGCGGGGCAAAGUGGCUGUGGCUAGACUGCC [G2U U20G] is 0.05. To GUCAGAGCUCAACACAGCGUGGCAAAGUGGCUGAGGCUAGACUGCC [G2U U34A] belongs 0.04. On to GUCAGAGCUCAACACAGCGUGGCAAAGUGGCUGGGGCUAGACUGCC [G2U U34G], for which the self-cleavage stood at 0.03. The figure for GUCAGAGCUCAACACAGCGUGGCAAAGUGGCUGCGGCUAGACUGCC [G2U U34C] is 0.04; for GGAAGAGCUCAACACAGCGUGGCGAAGUGGCUGUGGCUAGACUGCC [C3A A24G] it is 0.78.

On to GGAAGAGCUCAACACAGCGUGGCCAAGUGGCUGUGGCUAGACUGCC [C3A A24C], for which the self-cleavage came out at 0.27.

Turning to GGAAGAGCUCAACACAGCGUGGCUAAGUGGCUGUGGCUAGACUGCC [C3A A24U], the self-cleavage was found to be 0.51. To GGAAGAGCUCAACACAGCGUGGCAGAGUGGCUGUGGCUAGACUGCC [C3A A25G] belongs 0.29.

For GGAAGAGCUCAACACAGCGUGGCAUAGUGGCUGUGGCUAGACUGCC [C3A A25U], the self-cleavage came out at 0.79. The figure for GGAAGAGCUCAACACAGCGUGGCACAGUGGCUGUGGCUAGACUGCC [C3A A25C] is 0.41. The figure for GGAAGAGCUCAACCCAGCGUGGCAAAGUGGCUGUGGCUAGACUGCC [C3A A14C] is 0.16; for GGAAGAGCUCAACUCAGCGUGGCAAAGUGGCUGUGGCUAGACUGCC [C3A A14U] it is 0.27; for GGAAGAGCUCAACGCAGCGUGGCAAAGUGGCUGUGGCUAGACUGCC [C3A A14G] it is 0.61.

As to GGAAGAGCUCAACACAGCGUGGCAAAGUGGGUGUGGCUAGACUGCC [C3A C31G], the self-cleavage was determined as 0.13.

Consider GGAAGAGCUCAACACAGCGUGGCAAAGUGGUUGUGGCUAGACUGCC [C3A C31U], for which the self-cleavage is 0.11. The figure for GGAAGAGCUCAACACAGCGUGGCAAAGUGGAUGUGGCUAGACUGCC [C3A C31A] is 0.16.
